In patent US20190142860A1, “NUCLEIC ACID BASED TIA-1 INHIBITORS” (Aquinnah Pharmaceuticals, Inc., priority 2015, published 2019) one finds total ion current (normalized to TIA1 = 1000) data, which are given here for 22 substances.

In test [1] the target is Nucleolysin TIA-1 (endogenous mouse TIA1) (mouse) (UniProt P52912). As to the kind of experiment: TIA1 IP-MS, tau KO 1 cortex.
The target is the same in test [2]. Put plainly: TIA1 IP-MS, WT1 cortex.
Test [3] has the same target. Put plainly: TIA1 IP-MS, tau KO 2 cortex.
Test [4] has the same target. As to the kind of experiment: TIA1 IP-MS, tau KO 3 cortex.
The target is the same in test [5]. Put plainly: TIA1 IP-MS, WT3 cortex.
Test [6] shares this target. Put plainly: TIA1 IP-MS, WT2 cortex.

Sequence of UniProt P52912 (P52912 whole entry): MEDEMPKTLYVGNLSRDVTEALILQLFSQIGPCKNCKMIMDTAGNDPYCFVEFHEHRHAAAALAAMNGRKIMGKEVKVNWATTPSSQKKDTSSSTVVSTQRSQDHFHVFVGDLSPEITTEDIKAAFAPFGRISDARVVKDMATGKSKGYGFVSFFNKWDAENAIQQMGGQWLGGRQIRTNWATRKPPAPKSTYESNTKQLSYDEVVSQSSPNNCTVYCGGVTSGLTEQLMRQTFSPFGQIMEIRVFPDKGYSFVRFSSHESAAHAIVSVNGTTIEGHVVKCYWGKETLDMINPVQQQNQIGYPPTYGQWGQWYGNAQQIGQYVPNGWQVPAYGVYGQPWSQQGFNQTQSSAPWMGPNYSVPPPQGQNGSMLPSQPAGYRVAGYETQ

For “Cytochrome b-c1 complex subunit 1, mitochondrial (from UniProt Q9CZ13 35-480)”, the total ion current (normalized to TIA1 = 1000) came out at 0 in test [1]; 0 in test [2]; 1030 in test [3]; 0 in test [4]; 2460 in test [5]; 1320 in test [6].

Turning to “Isocitrate dehydrogenase [NAD] subunit, mitochondrial (from UniProt Q91VA7 34-384)”, the total ion current (normalized to TIA1 = 1000) came to 0 in test [1]; 0 in test [2]; 29.9 in test [3]; 0 in test [4]; 0 in test [5]; 110 in test [6].

In the case of “Ras-related protein Rab-5A (from UniProt Q9CQD1 1-215)”, the total ion current (normalized to TIA1 = 1000) in test [1] turned out to be 0; in test [2], 0; in test [3], 185; in test [4], 0; in test [5] it was 302; in test [6] it was 126.

As for “ATP-dependent 6-phosphofructokinase, platelet type (from UniProt Q9WUA3 1-784)”, the total ion current (normalized to TIA1 = 1000) in test [1] turned out to be 0; in test [2] it was 0; in test [3], 67.1; in test [4], 0; in test [5], 0; in test [6], 20.2.

As for “Dual specificity mitogen-activated protein kinase kinase 1 (from UniProt P31938 1-393)”, the total ion current (normalized to TIA1 = 1000) in test [1] was 0; in test [2] it was 0; in test [3] it was 67.8; in test [4], 0; in test [5] it was 83.7; in test [6] it was 108.

In the case of “Fructose-bisphosphate aldolase C (from UniProt P05063 2-363)”, the total ion current (normalized to TIA1 = 1000) in test [1] worked out at 0; in test [2], 0; in test [3], 43.2; in test [4] it was 0; in test [5] it was 41.6; in test [6], 69.5.

As for “Vesicular glutamate transporter 1 (from UniProt Q3TXX4 1-560)”, the total ion current (normalized to TIA1 = 1000) in test [1] is 130; in test [2], 0; in test [3], 64.5; in test [4], 0; in test [5] it was 0; in test [6], 141.

For the substance “Serine/threonine-protein phosphatase PP1-beta catalytic subunit (from UniProt P62141 2-327)”, the total ion current (normalized to TIA1 = 1000) in test [1] turned out to be 99.4; in test [2] it was 3.65; in test [3] it was 24.6; in test [4], 0; in test [5], 79.5; in test [6], 136.

Turning to “Centromere protein V (from UniProt Q9CXS4 1-252)”, the total ion current (normalized to TIA1 = 1000) in test [1] stood at 0; in test [2], 0; in test [3] it was 108; in test [4] it was 0; in test [5] it was 106; in test [6], 234.

For “Sorting and assembly machinery component 50 homolog (from UniProt Q8BGH2 1-469)”, the total ion current (normalized to TIA1 = 1000) in test [1] was 0; in test [2], 0; in test [3], 0; in test [4], 0; in test [5] it was 0; in test [6] it was 22.7.

Regarding “Isoform 2 of Sodium-driven chloride bicarbonate exchanger (from UniProt Q5DTL9 1-1088)”, the total ion current (normalized to TIA1 = 1000) in test [1] turned out to be 0; in test [2], 0; in test [3] it was 0; in test [4] it was 0; in test [5], 0; in test [6], 269.

For the substance “Isoform Cytoplasmic of Fumarate hydratase, mitochondrial (from UniProt P97807 1-467)”, the total ion current (normalized to TIA1 = 1000) in test [1] amounted to 0; in test [2], 0; in test [3], 49.2; in test [4], 0; in test [5], 0; in test [6], 57.7.

For “Isoform A1-I of V-type proton ATPase 116 kDa subunit a isoform 1 (from UniProt Q9Z1G4 1-838)”, the total ion current (normalized to TIA1 = 1000) in test [1] is 0; in test [2], 0; in test [3] it was 13; in test [4], 0; in test [5], 240; in test [6], 108.

For “Protein NipSnap homolog 2 (from UniProt O55126 28-281)”, the total ion current (normalized to TIA1 = 1000) in test [1] was determined as 0; in test [2], 0; in test [3] it was 0; in test [4] it was 0; in test [5], 0; in test [6], 81.

Regarding “Isoform 2 of 4-aminobutyrate aminotransferase, mitochondrial (from UniProt P61922 29-444)”, the total ion current (normalized to TIA1 = 1000) in test [1] came out at 0; in test [2], 0; in test [3], 112; in test [4], 0; in test [5], 79.4; in test [6] it was 272.

“Serine/arginine-rich splicing factor 2 (from UniProt Q62093 2-221)”: the total ion current (normalized to TIA1 = 1000) in test [1] came to 0; in test [2] it was 0; in test [3], 67.1; in test [4], 0; in test [5] it was 71.1; in test [6] it was 306.

Regarding “Isoform 2 of Paraspeckle component 1 (from UniProt Q8R326 1-466)”, the total ion current (normalized to TIA1 = 1000) came to 0 in test [1]; 0 in test [2]; 0 in test [3]; 239 in test [4]; 0 in test [5]; 98.3 in test [6].

As for “Sodium/potassium-transporting ATPase subunit beta-2 (from UniProt P14231 1-290)”, the total ion current (normalized to TIA1 = 1000) in test [1] amounted to 0; in test [2], 0; in test [3] it was 30.7; in test [4], 0; in test [5] it was 25.3; in test [6], 15.1.

With “Aconitate hydratase, mitochondrial (from UniProt Q99KI0 28-780)”, the total ion current (normalized to TIA1 = 1000) in test [1] amounted to 0; in test [2] it was 0; in test [3] it was 421; in test [4] it was 0; in test [5], 164; in test [6], 818.

On to “Calcium-transporting ATPase (from UniProt Q6Q477 1-1205)”, for which the total ion current (normalized to TIA1 = 1000) in test [1] came to 0; in test [2], 0; in test [3] it was 144; in test [4] it was 0; in test [5], 0; in test [6] it was 274.

For “Isoform 2 of Sarcoplasmic/endoplasmic reticulum calcium ATPase 2 (from UniProt O55143 1-998)”, the total ion current (normalized to TIA1 = 1000) came out at 0 in test [1]; 0 in test [2]; 21.5 in test [3]; 0 in test [4]; 0 in test [5]; 36.6 in test [6].

“Transcriptional activator protein Pur-alpha (from UniProt P42669 2-321)”: the total ion current (normalized to TIA1 = 1000) in test [1] worked out at 0; in test [2], 0; in test [3], 39.7; in test [4] it was 0; in test [5], 269; in test [6] it was 264.
